Experimental data published in publication PMC11996680.

Biological target: T1, HOOK3-SNAPf labeled with Alexa-647 (human) (UniProt Q86VS8)
T1 sequence (chain, Alexa-647 on the SNAP tag): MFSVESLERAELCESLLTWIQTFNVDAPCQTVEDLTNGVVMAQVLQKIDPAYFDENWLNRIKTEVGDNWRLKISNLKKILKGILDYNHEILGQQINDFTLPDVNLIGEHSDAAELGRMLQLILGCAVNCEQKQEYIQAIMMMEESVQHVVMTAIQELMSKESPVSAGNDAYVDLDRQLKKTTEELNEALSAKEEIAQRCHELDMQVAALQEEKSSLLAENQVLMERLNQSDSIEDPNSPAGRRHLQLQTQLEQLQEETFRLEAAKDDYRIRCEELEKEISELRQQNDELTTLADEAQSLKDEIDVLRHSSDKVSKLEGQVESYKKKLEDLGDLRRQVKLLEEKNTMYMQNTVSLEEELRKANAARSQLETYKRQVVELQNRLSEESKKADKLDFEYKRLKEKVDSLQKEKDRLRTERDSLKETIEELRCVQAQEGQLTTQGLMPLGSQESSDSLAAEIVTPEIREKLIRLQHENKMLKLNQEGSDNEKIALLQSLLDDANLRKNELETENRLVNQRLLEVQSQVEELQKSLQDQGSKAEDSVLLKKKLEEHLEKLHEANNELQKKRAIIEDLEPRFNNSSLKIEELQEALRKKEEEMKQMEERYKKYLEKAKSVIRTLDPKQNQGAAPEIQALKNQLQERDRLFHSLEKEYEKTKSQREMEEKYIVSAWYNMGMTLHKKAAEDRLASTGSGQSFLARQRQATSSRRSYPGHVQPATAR

TMR–dynein landing rate on microtubules (TIRF), dynein–dynactin–HOOK3 with against without GST–KIF1C stalk–GFP: 2.6 fold
B1: GST–KIF1C^642–922–GFP (domain or fragment)
chain: EMEKRLQDLENQYRKEKEEADLLLEQQRLYADSDSGDDSDKRSCEESWRLISSLREQLPPTTVQTIVKRCGLPSSGKRRAPRRVYQIPQRRRLQGKDPRWATMADLKMQAVKEICYEVALADFRHGRAEIEALAALKMRELCRTYGKPDGPGDAWRAVARDVWDTVGEEEGGGAGSGGGSEEGARGAEVEDLRAHIDKLTGILQEVKLQNSSKDRELQALRDRMLRMERVIPLAQDHEDENEEGGEVPWAPPEGSEAAEEAAPSDRMPSARPPSPPLSSWE
